Measurements as given in patent US20090208447A1 (MEDIGENE, published 2009).
Residue numbers refer to the chain shown, from its start.

How the values were obtained:
[1] = molecular target: T1, HLA-A*0201 loaded with the Carcinoembryonic antigen (CEA)-derived … peptide (biotinylated on the C-terminal biotinylation tag); experiment: SPR (Biacore 3000), biotinylated pMHC immobilised on streptavidin
[2] = molecular target: T1, HLA-A*0201 loaded with the …; experiment: SPR (Biacore), method of Example 4
[3] = molecular target: T1, HLA-A*0201 loaded with the …; experiment: SPR (Biacore), Example 4

B1: soluble truncated variant of the Wild-Type ILT-2 molecule (extracellular domains D1 and D2) (receptor)
chain: MGHLPKPTLWAEPGSVITQGSPVTLRCQGGQETQEYRLYREKKTAPWITRIPQELVKKGQFPIPSITWEHAGRYRCYYGSDTAGRSESSDPLELVVTGAYIKPTLSAQPSPVVNSGGNVTLQCDSQVAFDGFILCKEGEDEHPQCLNSQPHARGSSRAIFSVGPVSPSRRWWYRCYAYDSNSPYEWSLPSDLLELLVL
notes: also called soluble wild-type ILT-2 polypeptide; soluble two domain form of the wild-type ILT-2
With B1 the Kd [1] was ~6 µM and the koff [2] was 2.4 s⁻¹.

B2: SEQ ID NO 76 (receptor)
chain: MGHLPKPTLWAEPGSVITMDQPVTLRCQGGQETQQYRLYREKKTAPWITRIPQELVKKGQFPIPSITWEHAGRYRCYYGSDTRQWSASSDPLELVVTGVYIKPTLSAQPSPVVNSGGNVTLQCDSQVAFDGFILCKEGEDDHPQCLNSQPHARGSSRAIFSVGPVSPSRRWRYRCYAYDSNSPYEWSLPSDLLELDVDG
For B2, the Kd [3] was ≤ 1 µM and the koff [3] was ≤ 2 s⁻¹.

B3: SEQ ID NO 78 (receptor)
chain: MHLPKPTLWAEPGSVITMDQPVTLRCQGGQETQEYRLYREKKTAPWITRIPQELVKKGQFPIPSITWEHAGRYRCYYGSDTSQWSASSDPLELVVTGVYIKPTLSAQPSPVVNSGGNVTLQCDSQVAFDGFILCKEGEDEHPQCLNSQPHARGSSRAEFSVGPVSPSRRWWYRCYAYDSNSPYEWSLPSDLLELDVDG
In the case of B3, the Kd [3] is reported as ≤ 1 µM and the koff [3] is reported as ≤ 2 s⁻¹.

B4: SEQ ID NO 80 (receptor)
chain: B3 chain with C134S, C144S, E158I
B4 was tested, and the Kd [3] was ≤ 1 µM and the koff [3] was ≤ 2 s⁻¹.

B5: SEQ ID NO 79 (receptor)
chain: B3 chain with E158I, L187D
In the case of B5, the Kd [3] is reported as ≤ 1 µM and the koff [3] is reported as ≤ 2 s⁻¹.
